Experimental findings from patent publication US20180319855A1, “GENETICALLY MUTATED AEQUORIN-BASED BIOSENSORS WITH EXTRA SENSITIVITY TO CALCIUM AND IMPROVED BIOLUMINESCENCE INTENSITY” (CENTRE NATIONAL DE LA RECHERCHE SCIENTIFIQUE (CNRS), priority 2015, published 2018) are described below.

Where “and” joins values, the source holds several entries; their conditions need not be identical. Equal values may be shown once.

Data set [1] is described as follows: Ca2+ sensitivity curves of reconstituted photoproteins (L/Lmax vs free Ca2+). To be noted: for Relative intensity at pCa 6.5 / Relative intensity at pCa 7.2 / affinity to calcium group relative to Aeq-wt: CLZ-f; for Relative intensity at pCa 6.5 / Relative intensity at pCa 7.2: L/Lmax compared to Aeq-wt; for affinity to calcium group relative to Aeq-wt: at pCa 6.5, FIG. 2; for EC50: aequorin proteins reconstituted with CLZ-f, sigmoidal curve fit, mean ± SD, n at least 3, read-out: Calcium sensitivity, EC50. In kind it is biochemical. How it is done:
For in vitro reconstitution, the purified and concentrated samples of apoaequorin and redquorin mutant proteins were buffer-exchanged to 50 mM Tris-HCl (pH 7.5), 150 mM NaCl, 10 mM EGTA, 5 mM ß-mercaptoethanol, supplemented with 5 μM CLZ-f or CLZ-native and incubated overnight at 4° C., in the dark. The next day, samples were passed through molecular weight cut-offs (AmiconUitra MWCO, 10K and 50K, from Millipore), then resuspended in Zero-Ca^2+ buffer (30 mM MOPS, 100 mM KCl and 10 mM EGTA, pH 7.2) for calcium affinity, emission decay kinetics and spectral analysis assays. As for in cellulo reconstitution, HEK cells transiently expressing the proteins of apoaequorin and aporedquorin mutants were washed twice with Hank's Balanced Salt Solution (HBSS) and incubated in the dark, with 4 μM of the desired CLZ diluted in OptiMEM I medium (Gibco), for 2-3h at 37° C. and 5% CO2. Cells were washed once and maintained in HBSS at 37° C. for 20 min before the experiment.
Functional Analysis of Aequorin Mutants and Fusions Ca^2+ Sensitivity Curves.
Purified and reconstituted samples with CLZ-f or CLZ-native already buffered-exchanged to zero-calcium buffer ensured to minimize calcium contamination that could interfere with the measurements. Fifteen microliter aliquot of photoprotein samples (concentration range, 50 to 90 ng/μl) was placed in a home-made luminometer and mixed with 300 μl solution containing the desired concentration of free-Ca^2+. The solutions of EGTA-buffered with varying free-Ca^2+ prepared according to the manufacturer instruction for the kit (Molecular Probes, Invitrogen). Integration of the luminescence emission (per second) was measured for 20 seconds (background) before injecting a solution with known [free-Ca^2+] and lasted until stable or decaying signal (at final-phase) was obtained. At this point, 400 μl of a saturating calcium solution (30 mM MOPS, 100 mM CaCl2, pH 7.2) was rapidly injected (less than 30 ms) and light integration continued until all aequorin had been consumed and light intensity had gone back to background signal. Luminescence intensity (L) at different [Ca^2+] was taken as the response peak value in case of decaying signal or as the stable value in case of stable emission. Lmax, was measured by integrating all remaining luminescence signal from that moment (L value) to the end of the experiment. The EC50 values were extracted from a sigmoidal dose-response fit (variable slope) using GraphPad Prism software.

Data set [2] is described as follows: Thermostability: relative bioluminescence activity after 30 min incubation. The data set is classed as physicochemical. Conditions: for Thermostability, luminescence activity relative to wt-aequorin: CLZ-f. How it is done:
Thermostability of aequorin and redquorin mutant with increased affinity for calcium were compared to wt-aequorin (FIG. 5). The purified photoprotein samples were reconstituted with CLZ-f (as detailed earlier) and let to calibrate at room temperature (20-24° C.) for 20 min before taken the first measurement of total counts using saturating calcium solution (50 mM Tris-HCl, 100 mM CaCl2, pH 7.5). Samples were then incubated at two different temperatures (30 to 40° C.) for 30 min, and let equilibrate at room temperature for 15 minbefore taken the second measurement of total counts in the sample. The relative bioluminescence activity at each temperature was calculated by the ratio 2nd counts (at target T° C.)/1st counts (at initial T° C.) multiplied by 100.
Table 6 highlights the analysis of thermostability data obtained at two temperatures for aequorin and redquorin mutants, as well as CitA and GA. The values represent the degree of change in luminescence activity compared to wt-aeq, at each temperature. All values are relative to wt-aequorin (at each temperature) and were calculated by dividing the obtained data for each mutant/variant by the data for wt-aeq (as reference). The data were taken from FIG. 5.

B1: A123D: apoaequorin mutant, alanine 123 replaced by aspartic acid (SEQ ID NO:10) (protein)
chain: SKLTSDFDNPRWIGRHKHMFNFLDVNHNGKISLDEMVYKASDIVINNLGATPEQAKRHKDAVEAFFGGAGMKYGVETDWPAYIEGWKKLATDELEKYAKNEPTLIRIWGDALFDIVDKDQNGDITLDEWKAYTKAAGIIQSSEDCEETFRVCDIDESGQLDVDEMTRQHLGFWYTMDPACEKLYGGAVP
modifications: mutant aequorin
One may read the EC50 as the concentration at which the effect is half-maximal. Consider B1, for which, in data set [1], the “Relative intensity at pCa 6.5” value came out at 3.6, the “Relative intensity at pCa 7.2” value is given as 1.6, the “affinity to calcium group relative to Aeq-wt” value is given as “medium-high to high” and the EC50 is 374 nM. Also, the “Thermostability, luminescence activity relative to wt-aequorin” value in data set [2] (30° C. for 30 min) was 0.82. The “Thermostability, luminescence activity relative to wt-aequorin” value in data set [2] (40° C. for 30 min) turned out to be 0.84. The “less activity compared to wt-aeq (thermostability)” value in data set [2] (after incubation at 30 and 40° C.) is given as 19%.

B2: S157A: aequorin single mutant S157A, low calcium affinity (protein)
chain: SKLTSDFDNPRWIGRHKHMFNFLDVNHNGKISLDEMVYKASDIVINNLGATPEQAKRHKDAVEAFFGGAGMKYGVETDWPAYIEGWKKLATDELEKYAKNEPTLIRIWGDALFDIVDKDQNGAITLDEWKAYTKAAGIIQSSEDCEETFRVCDIDEAGQLDVDEMTRQHLGFWYTMDPACEKLYGGAVP
B2: the “affinity to calcium group relative to Aeq-wt” value in data set [1] is recorded as “low”.

B3: Q140R: aequorin single mutant Q140R, low calcium affinity (protein)
chain: SKLTSDFDNPRWIGRHKHMFNFLDVNHNGKISLDEMVYKASDIVINNLGATPEQAKRHKDAVEAFFGGAGMKYGVETDWPAYIEGWKKLATDELEKYAKNEPTLIRIWGDALFDIVDKDQNGAITLDEWKAYTKAAGIIRSSEDCEETFRVCDIDESGQLDVDEMTRQHLGFWYTMDPACEKLYGGAVP
Regarding B3, the “affinity to calcium group relative to Aeq-wt” value in data set [1] is reported as “low”.

B4: QT + ND: apoaequorin double mutant Q159T + N121D (SEQ ID NO:14) (protein)
chain: SKLTSDFDNPRWIGRHKHMFNFLDVNHNGKISLDEMVYKASDIVINNLGATPEQAKRHKDAVEAFFGGAGMKYGVETDWPAYIEGWKKLATDELEKYAKNEPTLIRIWGDALFDIVDKDQDGAITLDEWKAYTKAAGIIQSSEDCEETFRVCDIDESGTLDVDEMTRQHLGFWYTMDPACEKLYGGAVP
modifications: mutant aequorin
As for B4, in data set [1], the “Relative intensity at pCa 6.5” value was 14.4, the “Relative intensity at pCa 7.2” value is listed as 12.2 and the EC50 turned out to be 337 ± 10 nM.

B5: A179T: apoaequorin mutant, alanine 179 replaced by threonine (SEQ ID NO:11) (protein)
chain: SKLTSDFDNPRWIGRHKHMFNFLDVNHNGKISLDEMVYKASDIVINNLGATPEQAKRHKDAVEAFFGGAGMKYGVETDWPAYIEGWKKLATDELEKYAKNEPTLIRIWGDALFDIVDKDQNGAITLDEWKAYTKAAGIIQSSEDCEETFRVCDIDESGQLDVDEMTRQHLGFWYTMDPTCEKLYGGAVP
modifications: mutant aequorin
For B5, in data set [1], the “Relative intensity at pCa 6.5” value is 3.0, the “Relative intensity at pCa 7.2” value stood at 1.3, the “affinity to calcium group relative to Aeq-wt” value is given as “medium-high to high” and the EC50 was 330 nM. Further, the “Thermostability, luminescence activity relative to wt-aequorin” value in data set [2] (30° C. for 30 min) was found to be 0.96. In addition, in data set [2] (40° C. for 30 min), the “Thermostability, luminescence activity relative to wt-aequorin” value is listed as 1.02.

B6: Q159E: apoaequorin mutant, glutamine 159 replaced by glutamic acid (SEQ ID NO:8) (protein)
chain: SKLTSDFDNPRWIGRHKHMFNFLDVNHNGKISLDEMVYKASDIVINNLGATPEQAKRHKDAVEAFFGGAGMKYGVETDWPAYIEGWKKLATDELEKYAKNEPTLIRIWGDALFDIVDKDQNGAITLDEWKAYTKAAGIIQSSEDCEETFRVCDIDESGELDVDEMTRQHLGFWYTMDPACEKLYGGAVP
modifications: mutant aequorin
In the case of B6, the “Thermostability, luminescence activity relative to wt-aequorin” value in data set [2] (30° C. for 30 min) came out at 0.89; in data set [2] (40° C. for 30 min), 0.94.

B7: QT + AD: apoaequorin double mutant Q159T + A123D (SEQ ID NO:16) (protein)
chain: SKLTSDFDNPRWIGRHKHMFNFLDVNHNGKISLDEMVYKASDIVINNLGATPEQAKRHKDAVEAFFGGAGMKYGVETDWPAYIEGWKKLATDELEKYAKNEPTLIRIWGDALFDIVDKDQNGDITLDEWKAYTKAAGIIQSSEDCEETFRVCDIDESGTLDVDEMTRQHLGFWYTMDPACEKLYGGAVP
modifications: mutant aequorin
For B7, in data set [1], the “Relative intensity at pCa 6.5” value is listed as 22.8, the “Relative intensity at pCa 7.2” value was determined as 10.0 and the EC50 was 279 nM.

B8: S157T: aequorin single mutant S157T, medium-low calcium affinity (protein)
chain: SKLTSDFDNPRWIGRHKHMFNFLDVNHNGKISLDEMVYKASDIVINNLGATPEQAKRHKDAVEAFFGGAGMKYGVETDWPAYIEGWKKLATDELEKYAKNEPTLIRIWGDALFDIVDKDQNGAITLDEWKAYTKAAGIIQSSEDCEETFRVCDIDETGQLDVDEMTRQHLGFWYTMDPACEKLYGGAVP
With B8, the “affinity to calcium group relative to Aeq-wt” value in data set [1] is reported as “medium-low”.

B9: Q159D: apoaequorin mutant, glutamine 159 replaced by aspartic acid (SEQ ID NO:5) (protein)
chain: SKLTSDFDNPRWIGRHKHMFNFLDVNHNGKISLDEMVYKASDIVINNLGATPEQAKRHKDAVEAFFGGAGMKYGVETDWPAYIEGWKKLATDELEKYAKNEPTLIRIWGDALFDIVDKDQNGAITLDEWKAYTKAAGIIQSSEDCEETFRVCDIDESGDLDVDEMTRQHLGFWYTMDPACEKLYGGAVP
modifications: mutant aequorin
Turning to B9, in data set [1], the “Relative intensity at pCa 6.5” value is 25 and 25.1; the “affinity to calcium group relative to Aeq-wt” value is “medium-high to high and high”; the EC50 was 330 nM. Moreover, the “Thermostability, luminescence activity relative to wt-aequorin” value in data set [2] (30° C. for 30 min) is 0.95. For the same molecule, in data set [2] (40° C. for 30 min), the “Thermostability, luminescence activity relative to wt-aequorin” value amounted to 1.00.

B10: Q159T: apoaequorin mutant, glutamine 159 replaced by threonine (SEQ ID NO:6) (protein)
chain: SKLTSDFDNPRWIGRHKHMFNFLDVNHNGKISLDEMVYKASDIVINNLGATPEQAKRHKDAVEAFFGGAGMKYGVETDWPAYIEGWKKLATDELEKYAKNEPTLIRIWGDALFDIVDKDQNGAITLDEWKAYTKAAGIIQSSEDCEETFRVCDIDESGTLDVDEMTRQHLGFWYTMDPACEKLYGGAVP
modifications: mutant aequorin
In the case of B10, in data set [1], the “Relative intensity at pCa 6.5” value was 16 and 16.6; the “Relative intensity at pCa 7.2” value amounted to 4.8; the “affinity to calcium group relative to Aeq-wt” value is given as “medium-high to high”; the EC50 stood at 249 ± 13 nM. For the same molecule, the “Thermostability, luminescence activity relative to wt-aequorin” value in data set [2] (30° C. for 30 min) was determined as 0.92. Further, the “Thermostability, luminescence activity relative to wt-aequorin” value in data set [2] (40° C. for 30 min) is reported as 0.96.

B11: QT + AT: apoaequorin double mutant Q159T + A179T (SEQ ID NO:18) (protein)
chain: SKLTSDFDNPRWIGRHKHMFNFLDVNHNGKISLDEMVYKASDIVINNLGATPEQAKRHKDAVEAFFGGAGMKYGVETDWPAYIEGWKKLATDELEKYAKNEPTLIRIWGDALFDIVDKDQNGAITLDEWKAYTKAAGIIQSSEDCEETFRVCDIDESGTLDVDEMTRQHLGFWYTMDPTCEKLYGGAVP
modifications: mutant aequorin
Turning to B11, in data set [1], the “Relative intensity at pCa 6.5” value turned out to be 29.0, the “Relative intensity at pCa 7.2” value is reported as 14.0 and the EC50 is 281 ± 25 nM.
